Among the data in the RNAGym collection of RNA variant scans (doi:10.7554/elife.80360) are self-cleavage values, retold here.

The chains are these.
B1: HDV Ribozyme (parent)
chain: GGCCGGCAUGGUCCCAGCCUCCUCGCUGGCGCCGGCUGGGCAACAUUCCGAGGGGACCGUCCCCUCGGUAAUGGCGAAUGGGACCCA

The variants in this data set derive from B1. The experiment in a line: self-cleavage, relative activity (ratio to wild type); higher = more cleavage; co-transcriptional.
Regarding U27G C62A, the self-cleavage was 1.09.

On to U27G C62G, for which the self-cleavage worked out at 1.14.

For U27G C62U, the self-cleavage was 1.02.

G28A C85G: the self-cleavage is 0.0332.

G28A C85A: the self-cleavage worked out at 0.0369.

As for U27C G34A, the self-cleavage came to 0.289.

In the case of U27G C48G, the self-cleavage came to 0.923.

With G28A A77U, the self-cleavage was found to be 0.104.

As to G28A C41U, the self-cleavage came out at 0.0875.

G28A C41A: the self-cleavage was determined as 0.13.

For the variant U27C G55U, the self-cleavage is 0.426.

With U27C G55C, the self-cleavage amounted to 0.847.

U27C G55A: the self-cleavage stood at 0.533.

Consider G28A C84G, for which the self-cleavage is 0.0378.

On to U27C G52U, for which the self-cleavage stood at 1.01.

Turning to G28A C57U, the self-cleavage was found to be 0.163.

G28A C57G: the self-cleavage is 0.

As to G28A C57A, the self-cleavage came out at 0.0978.

As to U27G G80C, the self-cleavage stood at 0.213.

With U27G G80U, the self-cleavage was 0.224.

In the case of U27G C66U, the self-cleavage was determined as 1.02.

Regarding U27G C66A, the self-cleavage was 0.532.

Regarding U27G G38A, the self-cleavage was determined as 0.128.

For the variant U27A U60C, the self-cleavage is 1.21.

Regarding U27A G40U, the self-cleavage came to 0.793.

For U27A G40A, the self-cleavage was determined as 0.886.

As to U27C G29U, the self-cleavage was found to be 0.145.

In the case of U27G A43G, the self-cleavage is 0.302.

U27G A43C: the self-cleavage was determined as 0.166.

Regarding U27G A45C, the self-cleavage was 0.26.

As for U27G A45U, the self-cleavage amounted to 0.831.

As for U27G A42G, the self-cleavage was 0.289.

Consider G28A G38U, for which the self-cleavage stood at 0.0496.

With U27G A71C, the self-cleavage was 0.7.

Consider U27A C84U, for which the self-cleavage was 0.795.

Regarding U27A C84A, the self-cleavage came to 0.831.

For G28A U60C, the self-cleavage is 0.0811.

On to G28A U60A, for which the self-cleavage is 0.178.

For G28A U60G, the self-cleavage worked out at 0.0386.

Regarding U27A G29U, the self-cleavage was 0.

With U27A G29C, the self-cleavage amounted to 0.158.

Take U27G C30A: the self-cleavage is 0.458.

Regarding U27G C63A, the self-cleavage stood at 1.07.

In the case of U27G C63U, the self-cleavage stood at 1.11.

Regarding U27C C49G, the self-cleavage was 0.962.

Take U27C C49A: the self-cleavage came to 0.776.

For U27G C86A, the self-cleavage was 0.767.

As to U27G C86U, the self-cleavage was determined as 1.15.

For U27G U46C, the self-cleavage stood at 0.997.

For the variant U27G U46A, the self-cleavage was 0.332.

Take U27G A56U: the self-cleavage is 0.692.

For the variant U27A G53U, the self-cleavage was found to be 0.798.

In the case of U27A G53A, the self-cleavage worked out at 0.646.

For the variant U27C G54C, the self-cleavage is 0.538.

Consider U27G G54U, for which the self-cleavage came out at 0.997.

For the variant U27G G54A, the self-cleavage is 0.578.

In the case of G28A G40A, the self-cleavage came to 0.0615.

For the variant G28A C63A, the self-cleavage worked out at 0.128.

With G28A C63G, the self-cleavage is 0.148.

Take G28A G81C: the self-cleavage is 0.0674.

As for G28A G81U, the self-cleavage was found to be 0.0287.

For the variant U27C U65G, the self-cleavage is 0.831.

Consider U27C U65A, for which the self-cleavage is 0.957.

As to G28A C66U, the self-cleavage amounted to 0.138.

As for G28A A42G, the self-cleavage stood at 0.369.

Turning to G28A G80U, the self-cleavage is 0.0989.

G28A G54U: the self-cleavage was found to be 0.0733.

As to G28A G54A, the self-cleavage was found to be 0.0811.

Turning to U27A G31C, the self-cleavage was 0.378.

For U27A G31A, the self-cleavage came to 0.743.

U27A G50U: the self-cleavage worked out at 0.99.

Regarding U27C C48G, the self-cleavage stood at 0.831.

Turning to U27C C86U, the self-cleavage is 0.745.

Regarding U27C C86A, the self-cleavage turned out to be 0.875.

For the variant U27C C57G, the self-cleavage came out at 0.639.

As to U27C C57U, the self-cleavage turned out to be 0.707.

In the case of U27A G38U, the self-cleavage was 0.0426.

In the case of U27A G38A, the self-cleavage was 0.

With U27G G82A, the self-cleavage was found to be 0.534.

As to G28A C44U, the self-cleavage worked out at 0.215.

For the variant U27G G50A, the self-cleavage was determined as 0.923.

On to U27C U46G, for which the self-cleavage amounted to 0.332.

For U27C U46C, the self-cleavage amounted to 0.138.

On to U27C A83G, for which the self-cleavage came out at 0.727.

As for U27C A83C, the self-cleavage amounted to 0.554.

On to U27C A83U, for which the self-cleavage is 0.465.

Turning to G28A G55C, the self-cleavage was 0.0252.

With G28A G55A, the self-cleavage amounted to 0.153.

For the variant U27A G80C, the self-cleavage came to 0.469.

U27A U37G: the self-cleavage was found to be 0.119.

As to U27A U37C, the self-cleavage stood at 0.578.

In the case of U27A U37A, the self-cleavage is 0.138.

As for U27G U60A, the self-cleavage turned out to be 0.914.

Turning to U27G U60C, the self-cleavage came out at 0.804.

In the case of G28A U46A, the self-cleavage was found to be 0.0326.

Take G28A U46C: the self-cleavage was found to be 0.0594.

For the variant U27C G40U, the self-cleavage was determined as 0.7.

On to G28A G35U, for which the self-cleavage came out at 0.0601.

Consider U27G U47G, for which the self-cleavage is 1.27.

In the case of U27G U47A, the self-cleavage was 0.697.

Turning to U27C G53U, the self-cleavage is 0.746.

Take G28A G82U: the self-cleavage turned out to be 0.138.

On to U27A G82A, for which the self-cleavage amounted to 0.849.

Take U27C C32A: the self-cleavage came to 0.0519.

Take U27A C61A: the self-cleavage is 0.906.

Regarding G28A A71U, the self-cleavage is 0.0292.

With G28A A71C, the self-cleavage was determined as 0.162.

Take U27C C44A: the self-cleavage is 0.447.

As to U27C C44G, the self-cleavage was 0.277.

In the case of U27C A45C, the self-cleavage was 0.237.

With U27C G39A, the self-cleavage was 0.175.

Regarding U27C G39U, the self-cleavage was found to be 0.467.

For the variant U27C G82A, the self-cleavage is 0.396.

Consider U27C G82C, for which the self-cleavage was found to be 0.356.

U27G C33A: the self-cleavage stood at 0.185.

On to U27G C33U, for which the self-cleavage came out at 0.935.

As to U27C U79G, the self-cleavage is 0.32.

Consider U27C U79C, for which the self-cleavage is 0.101.

Regarding U27C U79A, the self-cleavage was 0.511.

Turning to U27A C49A, the self-cleavage came out at 0.831.

In the case of U27G G68U, the self-cleavage is 0.858.

For U27G G68A, the self-cleavage came to 0.858.

As for U27C C41G, the self-cleavage was 0.217.

Regarding U27C C41U, the self-cleavage is 0.604.

For the variant U27C C41A, the self-cleavage worked out at 0.192.

As for U27C G68A, the self-cleavage was found to be 0.697.

U27C G68C: the self-cleavage is 0.511.

For the variant G28A U47G, the self-cleavage was 0.268.

As to G28A U47A, the self-cleavage was found to be 0.

In the case of U27A U47G, the self-cleavage is 0.89.

U27C A77C: the self-cleavage came out at 0.192.

U27A G68U: the self-cleavage stood at 0.875.

U27A G68A: the self-cleavage was 0.944.

Turning to G28A G67U, the self-cleavage amounted to 0.0536.

For U27A G28C, the self-cleavage was 0.

U27A G28A: the self-cleavage turned out to be 0.0811.

As to G28A A70G, the self-cleavage amounted to 0.032.

With G28A C64A, the self-cleavage was determined as 0.121.

With G28A C64U, the self-cleavage stood at 0.117.

For the variant G28A C64G, the self-cleavage stood at 0.108.

For U27C C64U, the self-cleavage came out at 0.895.

Consider G28A G59C, for which the self-cleavage was determined as 0.086.

For G28A G59U, the self-cleavage was 0.117.

Take U27C U37A: the self-cleavage was 0.0519.

As for U27G G73U, the self-cleavage was 0.0723.

Turning to U27G G73A, the self-cleavage amounted to 0.396.

For the variant U27G G67A, the self-cleavage was 1.1.

In the case of U27C G67A, the self-cleavage was determined as 0.886.

Consider U27C G67C, for which the self-cleavage was determined as 0.997.

In the case of U27C G67U, the self-cleavage was 0.798.

Regarding U27C C33U, the self-cleavage was 0.453.

Turning to U27C C33G, the self-cleavage was 0.237.

For U27C U47G, the self-cleavage was 0.782.

Regarding U27C U47C, the self-cleavage is 0.511.

For U27C U47A, the self-cleavage is 0.519.

U27C G31C: the self-cleavage is 0.

As for U27G C85G, the self-cleavage came out at 1.29.

For the variant U27G C85A, the self-cleavage is 0.831.

For the variant U27G C85U, the self-cleavage worked out at 0.807.

As for U27G G59C, the self-cleavage is 1.03.

Take U27G G59A: the self-cleavage was found to be 0.855.

For U27G G59U, the self-cleavage turned out to be 1.03.

As to U27C C36U, the self-cleavage came to 0.404.

For the variant U27A G34U, the self-cleavage stood at 0.272.

With G28A A45U, the self-cleavage stood at 0.128.

U27G G81C: the self-cleavage came to 0.277.

Take U27A G73C: the self-cleavage is 0.0639.
